The source of these data is PMC3616104, “Structural and Phylogenetic Studies with MjTX-I Reveal a Multi-Oligomeric Toxin – a Novel Feature in Lys49-PLA2s Protein Class” (PLoS ONE, 2013).

Data set [1] deals with the molecule itself. In words: dynamic light scattering; MjTX-I 1.5 mg/ml, 18 °C, 20 mM Tris-HCl pH 8.0.
Data set [2] concerns the molecule itself. In words: dynamic light scattering; MjTX-I 1.5 mg/ml, 18 °C, 0.5, 2.0 and 10.0 mM Tris-HCl pH 8.0, two hours after addition of the buffer.

B1: MjTX-I (myotoxin-I) from Bothrops moojeni venom (natural protein)
chain: SLVELGKMILQETGKNPVTSYGAYGCNCGVLGRGKPKDATDRCCYVHKCCYKKLTDCNPKKDRYSYSWKDKTIVCGENNSCLKELCECDKAVAICLRENLDTYNKKYKNNYLKPFCKKADPC
notes: Myotoxin-I (MjTX-I), Lys49-phospholipase A2 homologue from Bothrops moojeni venom, NCBI GI 17368325; about 14 kDa per monomer; also called Lys49-PLA2
As usually defined, the stoichiometry N is a count of units in the complex or per binding partner. For B1, the “stoichiometry N” value in data set [1] was 4; in data set [2] it was 2.
